In patent US20220089705A1:
Blank lines part the entries; values can stand above or below the binder they belong to.

How the values were obtained:
[1] = molecular target: aP2 (species not stated in the passage) (Homo sapiens (Human)) (UniProt P15090); experiment: SPR and Octet ranking of H3 variants; value of the parent H3; species of aP2 not stated
[2] = molecular target: aP2 (species not stated in the passage) (Homo sapiens (Human)) (UniProt P15090); experiment: column head 'Affinity'; assay and aP2 species not printed on the sheet (the two other values of the column, 6.03 and 5.82 µM, equal the human aP2 averages of FIG. 31)

Kd [1]: < 0.07 µM
B1: H3, mouse anti-aP2 monoclonal antibody (H3 gL1/gH1) (antibody, V domains shown)
VH: QVQLQQPGAELVKPGASVKLSCKASGYTFTSNWITWVKQRPGQGLEWIGDIYPGSGSTTNNEKFKSKATLTVDTSSSTAYMQLSSLTSEDSAVYYCARLRGYYDYFDFWGQGTTLTVSS
VL: EVVLTQSPALMAASPGEKVTITCSVSSSISSSNLHWYQQKSETSPKPWIYGTSNLASGVPVRFSGSGSGTSYSLTISSMEAEDAATYYCQQWSHYPLTFGAGTKLELK

Kd [2]: 6.5 µM
B2: CA33, rabbit-mouse hybrid anti-aP2 monoclonal antibody (Rabbit Ab 909) (antibody, V domains shown)
VH: QSVEESGGRLVTPGTPLTLTCTVSGFSLSTYYMSWVRQAPGKGLEWIGIIYPSGSTYCASWAKGRFTISKASTTVDLKITSPTTEDTATYFCARPDNDGTSGYLSGFGLWGQGTLVTVSS
VL: DVVMTQTPASVSEPVGGTVTIKCQASEDISRYLVWYQQKPGQPPKRLIYKASTLASGVPSRFKGSGSGTDFTLTISDLECDDAATYYCQCTYGTYAGSFFYSFGGGTEVVVE
